The Ki is the dissociation constant of the complex between target and ligand, obtained from inhibition or displacement. Lower therefore signals tighter binding. The term Kd denotes the constant that tells how readily two partners part at equilibrium. Low readings indicate tighter binding, high ones weaker binding.

In test [1] the target is His6-E6AP ligase (full-length, baculovirus-expressed) (human) (UniProt Q05086). Briefly: non-competitive inhibition with respect to [UbcH7]o of E6AP chain formation.
For test [2] the target is unchanged. Nature of the test: non-competitive inhibition with respect to [UbcH7]o of His6-E6AP chain formation.
For test [3] the target is unchanged. Briefly: concentration dependence of inhibition of E6AP-catalyzed polyubiquitin chain formation.
For test [4], the target named is GST-E6AP ligase (wild-type, bacterially expressed fusion protein) (human) (UniProt Q05086). Briefly: inhibition of GST-E6AP-catalyzed 125I-polyubiquitin chain formation.
Test [5] shares this target. Nature of the test: calculated from the Ki of inhibition of chain formation.
The target is the same in test [6]. Nature of the test: inhibition of GST-E6AP-catalyzed 125I-polyubiquitin chain formation, nonlinear hyperbolic regression.
The target of a further test is GST-E6APR626A (human) (UniProt Q05086). Nature of the test: cell-based or functional assay.
GST-E6APR626A (human), sequence (Q05086 other isoform, or with tags, fused parts or gaps): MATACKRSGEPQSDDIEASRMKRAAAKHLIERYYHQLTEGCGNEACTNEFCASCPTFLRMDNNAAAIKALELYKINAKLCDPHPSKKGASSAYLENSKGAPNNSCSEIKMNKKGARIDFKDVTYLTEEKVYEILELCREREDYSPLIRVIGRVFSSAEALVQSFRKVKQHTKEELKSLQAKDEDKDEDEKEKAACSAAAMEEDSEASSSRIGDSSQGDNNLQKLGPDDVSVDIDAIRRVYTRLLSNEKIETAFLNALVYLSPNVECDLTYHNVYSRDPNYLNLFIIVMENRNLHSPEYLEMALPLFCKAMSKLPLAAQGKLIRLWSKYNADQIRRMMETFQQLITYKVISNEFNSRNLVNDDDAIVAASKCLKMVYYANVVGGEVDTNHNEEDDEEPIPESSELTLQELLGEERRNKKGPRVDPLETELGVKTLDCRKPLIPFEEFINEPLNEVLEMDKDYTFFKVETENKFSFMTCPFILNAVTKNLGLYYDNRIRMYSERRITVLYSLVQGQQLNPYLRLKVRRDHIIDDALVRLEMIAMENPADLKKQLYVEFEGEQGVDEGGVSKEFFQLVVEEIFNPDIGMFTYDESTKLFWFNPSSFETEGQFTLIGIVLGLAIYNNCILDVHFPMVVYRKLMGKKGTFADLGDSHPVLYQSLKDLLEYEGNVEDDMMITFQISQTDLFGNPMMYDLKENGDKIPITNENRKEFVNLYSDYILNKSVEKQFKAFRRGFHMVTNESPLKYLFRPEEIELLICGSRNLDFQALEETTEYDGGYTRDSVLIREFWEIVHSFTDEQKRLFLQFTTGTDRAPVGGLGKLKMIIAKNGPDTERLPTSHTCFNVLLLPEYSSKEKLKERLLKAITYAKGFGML
The target of another test is GST-E6APY533A (human) (UniProt Q05086). Briefly: cell-based or functional assay.
GST-E6APY533A (human), sequence (Q05086 other isoform, or with tags, fused parts or gaps): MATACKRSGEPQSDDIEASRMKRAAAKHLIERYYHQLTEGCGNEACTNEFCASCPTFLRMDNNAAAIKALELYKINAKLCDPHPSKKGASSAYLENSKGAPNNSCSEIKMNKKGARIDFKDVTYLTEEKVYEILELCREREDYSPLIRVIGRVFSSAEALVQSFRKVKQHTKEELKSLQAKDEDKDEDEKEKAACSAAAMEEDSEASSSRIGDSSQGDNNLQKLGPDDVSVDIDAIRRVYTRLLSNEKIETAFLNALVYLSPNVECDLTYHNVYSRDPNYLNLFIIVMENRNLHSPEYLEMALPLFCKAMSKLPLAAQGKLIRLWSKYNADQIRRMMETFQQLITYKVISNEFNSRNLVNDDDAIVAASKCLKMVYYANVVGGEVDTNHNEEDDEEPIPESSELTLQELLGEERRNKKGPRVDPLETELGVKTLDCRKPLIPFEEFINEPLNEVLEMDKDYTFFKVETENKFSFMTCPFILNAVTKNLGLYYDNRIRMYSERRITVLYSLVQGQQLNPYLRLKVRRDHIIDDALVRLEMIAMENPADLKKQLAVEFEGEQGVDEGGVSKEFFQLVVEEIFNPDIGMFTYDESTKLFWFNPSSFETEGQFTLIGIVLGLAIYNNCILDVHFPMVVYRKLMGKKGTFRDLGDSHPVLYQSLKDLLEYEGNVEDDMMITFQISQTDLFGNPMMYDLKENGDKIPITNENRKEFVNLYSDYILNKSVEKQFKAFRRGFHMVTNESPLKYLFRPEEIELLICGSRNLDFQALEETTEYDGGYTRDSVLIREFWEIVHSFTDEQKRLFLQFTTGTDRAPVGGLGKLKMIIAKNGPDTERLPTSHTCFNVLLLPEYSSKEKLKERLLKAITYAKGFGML
Test [7] deals with His6-E6AP ligase (full-length, baculovirus-expressed) (human) (UniProt Q05086). Nature of the test: cell-based or functional assay.
The target is the same in test [8]. Briefly: activation kinetics of His6-E6AP-catalyzed 125I-polyubiquitin chain formation (non-essential activator, double reciprocal plot).

E6AP-HectC820A (thrombin-processed), sequence (Q05086 473-875 C843A limits assumed): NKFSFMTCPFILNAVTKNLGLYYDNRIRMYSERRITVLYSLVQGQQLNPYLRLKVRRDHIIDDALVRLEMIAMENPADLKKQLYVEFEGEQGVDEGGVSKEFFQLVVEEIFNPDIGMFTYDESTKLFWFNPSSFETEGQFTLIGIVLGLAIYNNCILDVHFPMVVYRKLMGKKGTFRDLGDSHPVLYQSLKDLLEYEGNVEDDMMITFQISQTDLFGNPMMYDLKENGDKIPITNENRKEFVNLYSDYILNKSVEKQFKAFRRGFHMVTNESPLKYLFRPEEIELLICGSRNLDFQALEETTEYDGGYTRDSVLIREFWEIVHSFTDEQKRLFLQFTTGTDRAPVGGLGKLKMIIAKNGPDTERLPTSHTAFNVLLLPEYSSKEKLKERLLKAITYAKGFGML
GST-E6AP-HectC820A, sequence (Q05086 473-875 C843A): as the sequence (Q05086 473-875 C843A limits assumed) above

“E6(HPV16)Ct C-terminal domain (from UniProt P03126 89-158)” showed an inhibition constant (Ki) in test [1] of 4 µM.

Take “E6(HPV16)Δ91 N-terminal domain (from UniProt P03126 1-91)”: the Ki in [2] was 6 µM; in [3], 4 µM.

Turning to “E6AP-HectC820A (thrombin-processed) (from UniProt Q05086 450-852)”, the Ki in test [4] is 27 µM.

As to “E6APΔ495 (thrombin-processed) (from UniProt Q05086 1-495)”, the ΔGbinding in test [5] was -6.4 kcal/mol. The substance further had a Ki in [6] of 19 µM.

The substance “GST-E6AP-HectC820A (from UniProt Q05086 450-852)” had a Ki in test [4] of 31 µM.

As for “GST-E6APΔ495 (from UniProt Q05086 1-495)”, the ΔGbinding in [5] was -6.7 kcal/mol. Also, the Ki in test [6] turned out to be 12 µM.

For “HPV16 E6 protein (recombinant, full-length) (from UniProt P03126 1-158)”, the increase in rate of 125I-polyubiquitin chain formation with 20 nM E6 was found to be 13 fold with GST-E6APR626A (human) and 8 fold with GST-E6APY533A (human). The same substance showed a stimulation in E6AP ligase activity at saturating E6 protein in test [7] of 14 fold. In addition, the Kd in test [8] turned out to be 0.0015 µM.

The record behind these values is US20150210998A1.
